According to IntAct's records for PubMed 19468302:

B1: Rac GTPase-activating protein 1 (Homo sapiens), Q9H0H5 (parent)
chain: MDTMMLNVRNLFEQLVRRVEILSEGNEVQFIQLAKDFEDFRKKWQRTDHELGKYKDLLMKAETERSALDVKLKHARNQVDVEIKRRQRAEADCEKLERQIQLIREMLMCDTSGSIQLSEEQKSALAFLNRGQPSSSNAGNKRLSTIDESGSILSDISFDKTDESLDWDSSLVKTFKLKKREKRRSTSRQFVDGPPGPVKKTRSIGSAVDQGNESIVAKTTVTVPNDGGPIEAVSTIETVPYWTRSRRKTGTLQPWNSDSTLNSRQLEPRTETDSVGTPQSNGGMRLHDFVSKTVIKPESCVPCGKRIKFGKLSLKCRDCRVVSHPECRDRCPLPCIPTLIGTPVKIGEGMLADFVSQTSPMIPSIVVHCVNEIEQRGLTETGLYRISGCDRTVKELKEKFLRVKTVPLLSKVDDIHAICSLLKDFLRNLKEPLLTFRLNRAFMEAAEITDEDNSIAAMYQAVGELPQANRDTLAFLMIHLQRVAQSPHTKMDVANLAKVFGPTIVAHAVPNPDPVTMLQDIKRQPKVVERLLSLPLEYWSQFMMVEQENIDPLHVIENSNAFSTPQTPDIKVSLLGPVTTPEHQLLKTPSSSSLSQRVRSTLTKNTPRFGSKSKSATNLGRQGNFFASPMLK
B2: Rac GTPase-activating protein 1 (Homo sapiens), Q9H0H5 (parent)
chain: B1 chain
partner: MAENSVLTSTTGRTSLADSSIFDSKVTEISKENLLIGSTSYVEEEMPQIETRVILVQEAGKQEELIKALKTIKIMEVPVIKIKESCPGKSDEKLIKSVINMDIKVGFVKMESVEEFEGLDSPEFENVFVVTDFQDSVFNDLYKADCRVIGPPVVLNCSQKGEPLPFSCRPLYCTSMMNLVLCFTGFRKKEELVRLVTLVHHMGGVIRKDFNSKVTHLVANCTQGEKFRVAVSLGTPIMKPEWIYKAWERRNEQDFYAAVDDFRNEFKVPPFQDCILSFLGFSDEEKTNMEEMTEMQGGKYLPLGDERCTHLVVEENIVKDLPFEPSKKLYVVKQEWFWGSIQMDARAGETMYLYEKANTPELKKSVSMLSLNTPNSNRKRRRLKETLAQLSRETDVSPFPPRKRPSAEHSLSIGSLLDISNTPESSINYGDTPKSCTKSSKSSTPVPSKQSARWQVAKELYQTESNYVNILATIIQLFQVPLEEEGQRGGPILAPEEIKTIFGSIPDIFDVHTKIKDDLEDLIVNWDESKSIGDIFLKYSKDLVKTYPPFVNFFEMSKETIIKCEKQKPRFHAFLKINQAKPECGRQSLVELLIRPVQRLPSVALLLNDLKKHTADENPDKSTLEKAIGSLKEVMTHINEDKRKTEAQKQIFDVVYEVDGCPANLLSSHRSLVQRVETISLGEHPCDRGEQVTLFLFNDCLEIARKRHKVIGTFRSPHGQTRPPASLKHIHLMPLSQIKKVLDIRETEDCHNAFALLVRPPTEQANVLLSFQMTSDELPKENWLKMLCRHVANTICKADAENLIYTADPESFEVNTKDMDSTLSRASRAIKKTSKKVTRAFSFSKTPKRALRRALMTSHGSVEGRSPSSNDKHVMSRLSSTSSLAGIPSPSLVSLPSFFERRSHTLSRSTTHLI

Variants of: B1
Conditions: with plk1_human PLK1, P53350
plk1_human PLK1, P53350, sequence (P53350 whole entry): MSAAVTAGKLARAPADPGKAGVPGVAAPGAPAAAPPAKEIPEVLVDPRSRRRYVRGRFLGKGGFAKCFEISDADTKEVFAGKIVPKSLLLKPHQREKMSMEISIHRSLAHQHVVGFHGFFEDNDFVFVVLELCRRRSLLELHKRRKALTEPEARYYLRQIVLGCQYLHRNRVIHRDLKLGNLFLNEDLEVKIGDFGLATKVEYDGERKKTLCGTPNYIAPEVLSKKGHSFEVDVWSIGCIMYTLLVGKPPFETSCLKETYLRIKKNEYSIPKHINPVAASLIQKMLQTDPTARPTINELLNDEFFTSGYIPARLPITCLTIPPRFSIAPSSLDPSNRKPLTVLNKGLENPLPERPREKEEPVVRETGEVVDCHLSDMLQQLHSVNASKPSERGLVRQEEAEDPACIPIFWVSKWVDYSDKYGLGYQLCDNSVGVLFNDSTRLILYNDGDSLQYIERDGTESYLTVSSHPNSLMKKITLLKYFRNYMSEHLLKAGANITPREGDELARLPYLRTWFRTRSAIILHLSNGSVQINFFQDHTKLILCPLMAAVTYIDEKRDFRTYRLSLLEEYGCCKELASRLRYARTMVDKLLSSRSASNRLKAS

effect of a mutation on the interaction | Variant
decreasing interaction strength | S157A;S164A;S170A;S214A;T260A

Variants of: B2
Conditions: with ect2_human ECT2, Q9H8V3

effect of a mutation on the interaction | Variant
decreasing interaction strength | S157A;S164A;S170A;S214A;T260A
decreasing interaction | S157A
disrupting interaction | S157A;S164A;S170A
